Measurements: the Immune Epitope Database (IEDB)

How the values were obtained:
[1] = biological target: HLA-B*44:03; assay: IEDB peptide-MHC binding, purified MHC/competitive/radioactivity; filed as Kd, often an IC50 or EC50 that approximates it; ≥ and ≤ were set here for values at or beyond the usual limits of such assays
[2] = biological target: HLA-B*44:02; assay: as above
[3] = biological target: HLA-B*40:02; assay: as above
[4] = biological target: HLA-B*45:01; assay: as above
[5] = biological target: HLA-B*40:01; assay: as above
[6] = biological target: HLA-B*18:01; assay: as above
[7] = biological target: HLA-B*48:01; assay: IEDB peptide-MHC binding, purified MHC/direct/fluorescence; filed as Kd, often an IC50 or EC50 that approximates it; ≥ and ≤ were set here for values at or beyond the usual limits of such assays
[8] = biological target: HLA-B*35:01; assay: IEDB peptide-MHC binding, purified MHC/competitive/radioactivity; filed as Kd, often an IC50 or EC50 that approximates it; ≥ and ≤ were set here for values at or beyond the usual limits of such assays
[9] = biological target: HLA-B*53:01; assay: as above; conditions: source organism: Dengue virus 1 Brazil/97-11/1997
[10] = biological target: HLA-B*51:01; assay: as above; conditions: source organism: Dengue virus 1 Brazil/97-11/1997
[11] = biological target: HLA-A*33:01; assay: as above; conditions: source organism: Dengue virus 2 Jamaica/1409/1983
[12] = biological target: HLA-A*68:01; assay: as above; conditions: source organism: Dengue virus 2 Jamaica/1409/1983
[13] = biological target: HLA-B*58:01; assay: as above
[14] = biological target: HLA-A*02:17; assay: as above
[15] = biological target: HLA-A*02:06; assay: as above
[16] = biological target: HLA-A*02:01; assay: as above
[17] = biological target: HLA-B*15:17; assay: IEDB peptide-MHC binding, purified MHC/direct/fluorescence; filed as Kd, often an IC50 or EC50 that approximates it; ≥ and ≤ were set here for values at or beyond the usual limits of such assays; conditions: source organism: West Nile virus
[18] = biological target: HLA-A*02:03; assay: IEDB peptide-MHC binding, purified MHC/competitive/radioactivity; filed as Kd, often an IC50 or EC50 that approximates it; ≥ and ≤ were set here for values at or beyond the usual limits of such assays
[19] = biological target: HLA-A*30:02; assay: as above; conditions: source organism: Dengue virus 2 Jamaica/1409/1983
[20] = biological target: HLA-B*46:01; assay: IEDB peptide-MHC binding, purified MHC/direct/fluorescence; filed as Kd, often an IC50 or EC50 that approximates it; ≥ and ≤ were set here for values at or beyond the usual limits of such assays; conditions: source organism: Dengue virus
[21] = biological target: HLA-B*15:01; assay: IEDB peptide-MHC binding, purified MHC/competitive/radioactivity; filed as Kd, often an IC50 or EC50 that approximates it; ≥ and ≤ were set here for values at or beyond the usual limits of such assays; conditions: source organism: Dengue virus 2 Peru/IQT2913/1996
[22] = biological target: HLA-B*08:01; assay: as above; conditions: source organism: Dengue virus 2 Peru/IQT2913/1996
[23] = biological target: HLA-B*27:05; assay: IEDB peptide-MHC binding, purified MHC/direct/fluorescence; filed as Kd, often an IC50 or EC50 that approximates it; ≥ and ≤ were set here for values at or beyond the usual limits of such assays; conditions: source organism: Francisella tularensis subsp. holarctica LVS
[24] = source organism: SARS coronavirus Tor2
[25] = source organism: Mammarenavirus lassaense
[26] = source organism: Dengue virus 1 Brazil/97-11/1997
[27] = source organism: Dengue virus 2 Jamaica/1409/1983
[28] = source organism: Dengue virus 4 Philippines/H241/1956
[29] = source organism: Dengue virus 4 Dominica/814669/1981
[30] = source organism: Mammarenavirus machupoense
[31] = source organism: Dengue virus 1 Singapore/S275/1990
[32] = source organism: Dengue virus 2 Thailand/NGS-C/1944
[33] = source organism: Mammarenavirus guanaritoense

Question: Which results are given for GEDTVWEVQG?
Answer: Kd [1, 24]: 16300 nM; Kd [2, 24]: ≥ 45000 nM; Kd [3, 24]: 18400 nM; Kd [4, 24]: 4030 nM; Kd [5, 24]: ≥ 29300 nM; Kd [6, 24]: ≥ 70500 nM

Question: GRMEKKTWK was tested. Which Kd ([7]; source organism: West Nile virus) did it give?
Answer: Its Kd is at least 20000 nM.

Question: With KPYMAMSAL as the sequence, how does the Kd ([7]; source organism: Salmonella enterica subsp. enterica serovar Typhimurium) read?
Answer: The Kd was 541 nM.

Question: With YDQMKCKSL as the sequence, how does the Kd [1, 25] read?
Answer: The Kd was at least 78100 nM.

Question: And the Kd [2, 25]?
Answer: Its Kd is at least 76200 nM.

Question: What about the Kd [3, 25] of the same sequence?
Answer: The Kd was 3200 nM.

Question: And the Kd [4, 25]?
Answer: Its Kd is at least 59400 nM.

Question: What about the Kd [5, 25] of the same sequence?
Answer: The Kd was at least 76100 nM.

Question: And the Kd [6, 25]?
Answer: The Kd was at least 77500 nM.

Question: How did the Kd [8, 26] turn out when YAQMWQLMYF was run?
Answer: The Kd was 964 nM.

Question: And the Kd [9]?
Answer: The Kd was 81 nM.

Question: And the Kd [10]?
Answer: Its Kd is 19400 nM.

Question: With FTNMEAQLIR as the sequence, how does the Kd [11] read?
Answer: The Kd was 108 nM.

Question: What about the Kd [8, 27] of the same sequence?
Answer: Its Kd is 9880 nM.

Question: And the Kd [12]?
Answer: The Kd was 19.3 nM.

Question: Which Kd [13, 26] does the source give for VASEMAEALK here?
Answer: The Kd was at least 10000 nM.

Question: For KQLGQVMLLV, which Kd [14, 28] is on record?
Answer: Its Kd is 172 nM.

Question: And the Kd ([15]; source organism: Dengue virus 3 Martinique/1243/1999)?
Answer: Its Kd is 5.78 nM.

Question: And the Kd [16, 28]?
Answer: Its Kd is 20.2 nM.

Question: KSFLVHREW was tested. Which Kd [17] did it give?
Answer: Its Kd is 5.7 nM.

Question: ALSEGVYRI was tested. Which Kd [18, 29] did it give?
Answer: The Kd was 17.3 nM.

Question: And the Kd [14, 29]?
Answer: The Kd was 172 nM.

Question: And the Kd [16, 29]?
Answer: The Kd was 2.88 nM.

Question: For SDHLISEML, which Kd [1, 30] is on record?
Answer: The Kd was at least 31700 nM.

Question: What about the Kd [2, 30] of the same sequence?
Answer: The Kd was 12200 nM.

Question: What about the Kd [3, 30] of the same sequence?
Answer: Its Kd is 217 nM.

Question: What about the Kd [4, 30] of the same sequence?
Answer: The Kd was 17200 nM.

Question: What about the Kd [5, 30] of the same sequence?
Answer: The Kd was at least 22400 nM.

Question: What about the Kd [6, 30] of the same sequence?
Answer: Its Kd is at least 77500 nM.

Question: How did the Kd [14, 31] turn out when FMNEDHWFS was run?
Answer: The Kd was 244 nM.

Question: What about the Kd [15, 26] of the same sequence?
Answer: The Kd was 270 nM.

Question: What about the Kd [16, 31] of the same sequence?
Answer: The Kd was 9.76 nM.

Question: How did the Kd [1, 30] turn out when AEWLEMICF was run?
Answer: Its Kd is 68.1 nM.

Question: What about the Kd [2, 30] of the same sequence?
Answer: Its Kd is 44.6 nM.

Question: And the Kd [3, 30]?
Answer: Its Kd is 19.4 nM.

Question: And the Kd [4, 30]?
Answer: The Kd was 82.5 nM.

Question: And the Kd [5, 30]?
Answer: Its Kd is 2010 nM.

Question: And the Kd [6, 30]?
Answer: Its Kd is 164 nM.

Question: RRDKRSVAL was tested. Which Kd ([7]; source organism: Dengue virus) did it give?
Answer: Its Kd is 153 nM.

Question: What does the source list for LLLTIGLSLV?
Answer: Kd [18, 26]: 14.6 nM; Kd [14, 31]: 2620 nM; Kd [15, 26]: 62 nM; Kd [16, 31]: 3.91 nM

Question: Which Kd [13, 27] does the source give for RSVALVPHV here?
Answer: The Kd was 8.81 nM.

Question: For KLQLKGMSY, which Kd [19] is on record?
Answer: The Kd was 131 nM.

Question: And the Kd [20]?
Answer: Its Kd is at least 20000 nM.

Question: What does the source list for REPAGLGSM?
Answer: Kd [1, 25]: ≥ 78100 nM; Kd [2, 25]: ≥ 33500 nM; Kd [3, 25]: 85.9 nM; Kd [4, 25]: ≥ 77700 nM; Kd [5, 25]: 7910 nM; Kd [6, 25]: 8150 nM

Question: Which Kd ([14]; source organism: Dengue virus 3 China/80-2/1980) does the source give for KLEKASLIEV here?
Answer: Its Kd is 1140 nM.

Question: What does the source list for LMMTTIGIVL?
Answer: Kd [21]: 21.7 nM; Kd [22]: 5900 nM; Kd [14, 32]: 1190 nM; Kd ([15]; source organism: Dengue virus 2 Peru/IQT2913/1996): 30.8 nM; Kd [16, 32]: 28.9 nM

Question: ADSEITETY was tested. Which Kd [1, 33] did it give?
Answer: Its Kd is 2770 nM.

Question: What about the Kd [2, 33] of the same sequence?
Answer: Its Kd is 6540 nM.

Question: And the Kd [3, 33]?
Answer: Its Kd is at least 77200 nM.

Question: And the Kd [4, 33]?
Answer: The Kd was 17000 nM.

Question: What about the Kd [5, 33] of the same sequence?
Answer: Its Kd is at least 37600 nM.

Question: And the Kd [6, 33]?
Answer: The Kd was 1390 nM.

Question: KLFMALVAFL was tested. Which Kd [18, 27] did it give?
Answer: The Kd was 3.35 nM.

Question: And the Kd [14, 27]?
Answer: The Kd was 51.8 nM.

Question: And the Kd [16, 27]?
Answer: The Kd was 46.6 nM.

Question: For PDFNSLISI, which Kd [1, 30] is on record?
Answer: The Kd was at least 78100 nM.

Question: And the Kd [2, 30]?
Answer: Its Kd is at least 26600 nM.

Question: What about the Kd [3, 30] of the same sequence?
Answer: The Kd was 813 nM.

Question: And the Kd [4, 30]?
Answer: The Kd was at least 77700 nM.

Question: And the Kd [5, 30]?
Answer: Its Kd is 15800 nM.

Question: And the Kd [6, 30]?
Answer: The Kd was at least 77500 nM.

Question: Which Kd [18, 28] does the source give for SMAMTCIAV here?
Answer: The Kd was 4.07 nM.

Question: And the Kd [14, 28]?
Answer: Its Kd is 74 nM.

Question: What about the Kd [16, 28] of the same sequence?
Answer: The Kd was 11.9 nM.

Question: Which Kd [23] does the source give for KRLSVNQKY here?
Answer: The Kd was 62.2 nM.

Question: And the Kd ([7]; source organism: Francisella tularensis subsp. holarctica LVS)?
Answer: The Kd was at least 20000 nM.

Question: What does the source list for NDNFLMRNV?
Answer: Kd [1, 30]: ≥ 42500 nM; Kd [2, 30]: 9960 nM; Kd [3, 30]: 2120 nM; Kd [4, 30]: ≥ 77500 nM; Kd [5, 30]: ≥ 76100 nM; Kd [6, 30]: ≥ 76700 nM
